These results are taken from article PMC3967872 (DNA repair, 2014).

B3: GST fusion of S. pombe Myh1(245-461) (domain or fragment, UniProt Q10159 245-461, looked up)
chain: YQEQNVIRDGNTIKYDIEDVPCNICITDIPSKEDLQNWVVARYPVHPAKTKQREERALVVIFQKTDPSTKEKFFLIRKRPSAGLLAGLWDFPTIEFGQESWPKDMDAEFQKSIAQWISNDSRSLIKKYQSRGRYLHIFSHIRKTSHVFYAIASPDIVTNEDFFWISQSDLEHVGMCELGLKNYRAALEIKKRKVTSLSNFKEPKLTSARRIVTKAEC
B4: GST fusion of intact wild-type S. pombe Myh1 (GST-Myh1) (enzyme, UniProt Q10159 1-461, looked up)
chain: MSDSNHSLDLHSYTQLEVERFRESLIQFYDKTKRILPWRKKECIPPSEDSPLEDWEQPVQRLYEVLVSEIMLQQTRVETVKRYYTKWMETLPTLKSCAEAEYNTQVMPLWSGMGFYTRCKRLHQACQHLAKLHPSEIPRTGDEWAKGIPGVGPYTAGAVLSIAWKQPTGIVDGNVIRVLSRALAIHSDCSKGKANALIWKLANELVDPVRPGDFNQALMELGAITCTPQSPRCSVCPISEICKAYQEQNVIRDGNTIKYDIEDVPCNICITDIPSKEDLQNWVVARYPVHPAKTKQREERALVVIFQKTDPSTKEKFFLIRKRPSAGLLAGLWDFPTIEFGQESWPKDMDAEFQKSIAQWISNDSRSLIKKYQSRGRYLHIFSHIRKTSHVFYAIASPDIVTNEDFFWISQSDLEHVGMCELGLKNYRAALEIKKRKVTSLSNFKEPKLTSARRIVTKAEC

Common to all, as to test: pull-down
Experiment [1] has as its target B4.
Experiment [2] addresses B3.
Experiment [3] concerns the target T1, His-tagged full-length S. pombe Apn2 with Asn at position 254 (His-Apn2^N254) (S. pombe, UniProt P87175 1-523).
T1 sequence (looked up): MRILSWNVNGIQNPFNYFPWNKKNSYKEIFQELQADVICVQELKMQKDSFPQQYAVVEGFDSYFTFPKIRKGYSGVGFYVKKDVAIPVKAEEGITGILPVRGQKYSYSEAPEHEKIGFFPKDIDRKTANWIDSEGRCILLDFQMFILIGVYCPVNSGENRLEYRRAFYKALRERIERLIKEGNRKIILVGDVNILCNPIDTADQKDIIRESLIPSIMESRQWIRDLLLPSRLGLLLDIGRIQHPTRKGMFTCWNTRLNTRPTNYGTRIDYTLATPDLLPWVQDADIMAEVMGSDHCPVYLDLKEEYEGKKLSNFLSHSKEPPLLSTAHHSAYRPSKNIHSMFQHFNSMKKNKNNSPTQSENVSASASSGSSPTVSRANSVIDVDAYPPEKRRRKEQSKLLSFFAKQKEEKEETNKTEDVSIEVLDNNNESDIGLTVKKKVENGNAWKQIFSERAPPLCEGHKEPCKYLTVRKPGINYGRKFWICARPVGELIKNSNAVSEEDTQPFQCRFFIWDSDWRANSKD

The target of experiment [4] is T2, His-tagged full-length SpApn2^N254/S295, catalytically inactive mutant (His-Apn2^S295) (S. pombe, UniProt P87175 1-523, H295S).
T2 sequence (looked up): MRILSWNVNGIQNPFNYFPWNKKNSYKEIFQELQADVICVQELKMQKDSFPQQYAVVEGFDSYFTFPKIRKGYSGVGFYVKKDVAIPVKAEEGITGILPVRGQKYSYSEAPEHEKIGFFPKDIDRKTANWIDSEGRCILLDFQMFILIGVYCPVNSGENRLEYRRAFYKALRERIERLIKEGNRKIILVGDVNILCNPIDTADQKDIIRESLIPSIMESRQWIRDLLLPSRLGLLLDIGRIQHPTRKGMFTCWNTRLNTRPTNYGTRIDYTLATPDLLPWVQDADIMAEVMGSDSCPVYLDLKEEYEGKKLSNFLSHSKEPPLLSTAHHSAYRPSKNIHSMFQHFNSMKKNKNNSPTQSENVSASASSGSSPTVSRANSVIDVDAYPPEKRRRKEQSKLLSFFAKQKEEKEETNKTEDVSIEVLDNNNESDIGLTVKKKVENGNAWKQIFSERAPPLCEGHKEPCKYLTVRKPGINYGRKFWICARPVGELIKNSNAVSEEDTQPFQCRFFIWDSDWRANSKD

B1: His- and maltose binding protein (MBP)-tagged SpApn2 residues 1-303 (His-MBP-Apn2^1-303) (domain or fragment, S. pombe, UniProt P87175 1-303, looked up)
chain: MRILSWNVNGIQNPFNYFPWNKKNSYKEIFQELQADVICVQELKMQKDSFPQQYAVVEGFDSYFTFPKIRKGYSGVGFYVKKDVAIPVKAEEGITGILPVRGQKYSYSEAPEHEKIGFFPKDIDRKTANWIDSEGRCILLDFQMFILIGVYCPVNSGENRLEYRRAFYKALRERIERLIKEGNRKIILVGDVNILCNPIDTADQKDIIRESLIPSIMESRQWIRDLLLPSRLGLLLDIGRIQHPTRKGMFTCWSTRLNTRPTNYGTRIDYTLATPDLLPWVQDADIMAEVMGSDHCPVYLDLK
Take B1: the binding result in experiment [1] is reported as “binds”.

B2: His-tagged full-length S. pombe Apn2 with Ser at position 254 (His-Apn2^S254) (enzyme, UniProt P87175 1-523, looked up)
chain: MRILSWNVNGIQNPFNYFPWNKKNSYKEIFQELQADVICVQELKMQKDSFPQQYAVVEGFDSYFTFPKIRKGYSGVGFYVKKDVAIPVKAEEGITGILPVRGQKYSYSEAPEHEKIGFFPKDIDRKTANWIDSEGRCILLDFQMFILIGVYCPVNSGENRLEYRRAFYKALRERIERLIKEGNRKIILVGDVNILCNPIDTADQKDIIRESLIPSIMESRQWIRDLLLPSRLGLLLDIGRIQHPTRKGMFTCWSTRLNTRPTNYGTRIDYTLATPDLLPWVQDADIMAEVMGSDHCPVYLDLKEEYEGKKLSNFLSHSKEPPLLSTAHHSAYRPSKNIHSMFQHFNSMKKNKNNSPTQSENVSASASSGSSPTVSRANSVIDVDAYPPEKRRRKEQSKLLSFFAKQKEEKEETNKTEDVSIEVLDNNNESDIGLTVKKKVENGNAWKQIFSERAPPLCEGHKEPCKYLTVRKPGINYGRKFWICARPVGELIKNSNAVSEEDTQPFQCRFFIWDSDWRANSKD
As to B2, the “fold weaker interaction than intact Myh1” value in experiment [2] was 2 fold.
With B3, the binding result in experiment [3] is recorded as “binds”.
As for B4, the binding result in experiment [4] and in experiment [3] was “binds” in each case.

B5: GST fusion of S. pombe Myh1(I261A) (enzyme, UniProt Q10159 1-461, looked up)
chain: MSDSNHSLDLHSYTQLEVERFRESLIQFYDKTKRILPWRKKECIPPSEDSPLEDWEQPVQRLYEVLVSEIMLQQTRVETVKRYYTKWMETLPTLKSCAEAEYNTQVMPLWSGMGFYTRCKRLHQACQHLAKLHPSEIPRTGDEWAKGIPGVGPYTAGAVLSIAWKQPTGIVDGNVIRVLSRALAIHSDCSKGKANALIWKLANELVDPVRPGDFNQALMELGAITCTPQSPRCSVCPISEICKAYQEQNVIRDGNTIKYDAEDVPCNICITDIPSKEDLQNWVVARYPVHPAKTKQREERALVVIFQKTDPSTKEKFFLIRKRPSAGLLAGLWDFPTIEFGQESWPKDMDAEFQKSIAQWISNDSRSLIKKYQSRGRYLHIFSHIRKTSHVFYAIASPDIVTNEDFFWISQSDLEHVGMCELGLKNYRAALEIKKRKVTSLSNFKEPKLTSARRIVTKAEC
In the case of B5, the binding result in experiment [3] is “binds”.
